Measured values: the DeepSol protein solubility set

Assay: soluble on expression in E. coli; label from the status in PepcDB or PDB records

Sequence | soluble on expression in E. coli
MSLVLGNAWLVLADRVIEHGWVAIADGVIAEVGEGDAPNGAKDMHGDLVMPGLVELHTDHLEAHYTPRPKVQWNPVAAVVSYDGQLATCGITTVLDSLRVWREEGAEEVDGQAIVLAGAISTARDAQLLRADHFLHLRCEIPMPNVVAEAKELIDRPDIRLMSLMDHTPGQRQFRDEEKLRDYYRGKGAGMTDAELDVMFARRVYCKENYADANMRAIVELAHRYEIPLASHDDTTPENVADAIRDRVAVAEFPTTLEAARELHQAGIDILMGAPNVVRGGSHSGNIAAIDLAHEGLLDILSSDYIPSSLLIAALQLPMRAPGIDLAAAIRTVTKAPAEAVGLNDRGEISKGKRADLIRVHVAHDVPAVRSVWREGQRVAEGHHHHHH | soluble
MTPHATPAPRVSAIVSLYNAERFVRGCLDDLLGQTLADSLEIIVIDACSPQGEGAIVQDYMRDHPNIVYVRTDEREGVYASWNRGVRLARAPYVTNANADDRHREDALERLAAALDEAPEAGFAYGDCRVGQTENERYADNAGQRVMRFPDFFAPATLLYCQLGPQPLWRRSVHDVVGFFDESYRACADWDFDIRLAAAFRGIHVPDALGLYLEHEAAITFRDDTMTRENDRVQRQWQHPEAVEERYRAAGVPCHTAEERALVHFDMALRALRFYPPWCYGAPAHNPGFARRCLRHALRLAPALAPAKELLALPDAVLTALDDLPSPLGLPSQATLAGVAAPLEHHHHHH | not soluble
MAISSRNTLLAALAFIAFQAQAVNVTVAYQTSAEPAKVAQADNTFAKESGATVDWRKFDSGASIVRALASGDVQIGNLGSSPLAVAASQQVPIEVFLLASKLGNSEALVVKKTISKPEDLIGKRIAVPFISTTHYSLLAALKHWGIKPGQVEIVNLQPPAIIAAWQRGDIDGAYVWAPAVNALEKDGKVLTDSEQVGQWGAPTLDVWVVRKDFAEKHPEVVKAFSKSAIDAQQPYIANPDVWLKQPENISKLARLSGVPEGDVPGLVKGNTYLTPQQQTAELTGPVNKAIIDTAQFLKEQGKVPAVANDYSQYVTSRFVQ | not soluble
MVTEKTLRTCEQGHEYYKSSDCPTCPVCEKERKPKESFLSLLSAPARRALEHRGIQTVEELSKYSEKEILKLHGMGPASLPKLKKVLEESWLSFK | not soluble
MKKSSEVMHQACDACRKKKWKCSKTVPTCTNCLKYNLDCVYSPQVVRTPLTRAHLTEMENR | soluble
MAQMYFYYSAMNAGKSTTLLQSSFNYQERGMTPVIFTAALDDRYGVGKVSSRIGLQSDAHLFRPDTNLYQEIAALHEVEKRHCIL | not soluble
MGHHHHHHSHMNSAEQTVTWLITLGVLESPKKTISDPEGFLQASLKDGVVLCRLLERLLPGTIEKVYPEPRSESECLSNIREFLRGCGASLRLELLFPPSQPPQHLVTTILLSASTFDANDLYQGQNFNKVLSSLVTLNKVTADIGLGSDSVCARPSSHRIKSFDSLGSQSLHTR | soluble
MSLGEPMKQEKQQFIKTDWTIDMINRRQFEKYAIDILTATKDIHRGGWVERIDNKAWQYVRVYENGDIEVLITLQIIRFHKYFDTPVWLQFNPNHLLPADYVQLDHVMKYVDHSHLTRADLANDIYNINLQRYDFGLFGVTRDIYRSLSGDLETRYWGRRKSERQIRLYDKMREMKKHGKADDIPDGITDWWRLEFQFRGGKVESWQEEVMDKMQSFHVLAVDDNDDLSEIDKAILARVNADKFDFKRVGKRYAAKIRKMVRENVGFDTTVAELSLKTFNEQKDELQRQLDSMLAKYNIGAQTEEMTAYFEEELKQTGNLDFSVVESESALERNVIRNIAKTWREENSLTHRTNTEGHHHHHH | not soluble
MAHHHHHHMGAEHSTGMTKVLMPQFSTKRQTGPFLSPVERVTASGQSVVIECGDGVSRVDDGTAVVELFALDSKATEEDAMVEAFGEFAITKDDLIGRTRSSLKRGRVEEDEDLPCYFLAPRRRSCSVGGHNSADADSVLASPSRWGAVETDADGAMWRLLQEYDELLCVEAIGDATEDLYCYPDHRKDDEFDSNAEDFSGNDYPDDADERSGESAERAEEEASGFSTERRGGRVASHSTYGMFCEEGYSERSLSSVWNSDG | soluble
MTTQFKPELLSPAGSLKNMRYAFAYGADAVYAGQPRYSLRVRNNEFNHANLKIGIDEAHSLGKKFYVVVNIAPHNSKLKTFIKDLQPVIDMKPDALIMSDPGLIMLVRENFPNIDIHLSVQANAVNWATVKFWKQMGLTRVILSRELSIDEIAEIRQQVPDIELEIFVHGALCMAYSGRCLLSGYINKRDPNQGTCTNACRWEYKMEEGTTDDVGNIVPKIDPAQQIEVKNVAPTLGEGAVTDKVFLYTESQKPDEQMTAFEDKHGTYFMNSKDLRAVQHVEKLTALGVHSLKIEGRTKSFYYCARTAQVYRKAIDDAAAGKPFDESLMDTLESLAHRGYTEGFLRRHTHDEYQNYEYGYSISDRQQFVGEFTGKRNEQGMAEVAVKNKFLLGDNVEMMTPQGNINFKIEKMLNRKNETVDAALGDGHFVFLNVPQDINLNYALLMRNLVNTNTRNPHSN | not soluble
MGSDKIHHHHHHMSLVINQLSKRIDHHQTLDGISFEIGLGQIVGVVGRNGVGKTTLFRTINGQYLTDHGQVLVDGQEVVDQPEMRTQLCFIDPLANFFKGATIAQIQWYYQAAYPDFDNAKFAQLLDRYHLTSKQKLRHFSKGMFGLFTIILSVATQAPYLFLDEPLDGLDVLIRKNILGILIDEVATGNRSIVIASHNLAELEGVIDRALMLKHGRIVNDYQLEAMRRSARKVQLVYRDKQIPAVVKQLGHIVHVSGRVIVVVFEDYNAEVQAQLATTNPVFQEDLPLSLADLFMANLTDEADFELLS | not soluble
MGSDKIHHHHHHMPRYARKRSSTGIYHVMLKGIDGRDIFLDDEDKEKFIENMLKARDKGNFELYAYCLMDNHLHILIKESEGIGTSIKRIAVGYVQWHNNKYGRIGHLFQNRYLSEPVETESYLLTVVKYIHQNPLKARIVTQLADYKWSSYLQYLAAYKGDNSHIDPLLIMEYFKIQTEFESYMNEPTNSECLDYKQSSKYTDEILKNIIRESFGINDLIDMPNDMRNALIKDIYQSTGVSIRQLARVLGIGKSIVERALK | not soluble
MGSDKIHHHHHHMSEKTLLELPKKFMEALMAPFIGREEEAKVITLALLSKEHVILIGEPGTAKSALARRAAELLNAKFFMYLLTKYTEPAELFGALDINALKDGQYKRITKDRLPESQIAFLDEIFNANSAILNALLSLLNERVIYDGYNVIKVPLRTLISASNRVPDEPELEALYDRLLLRHYARPVGEELWKQLLDATWEIEFTNRWAVKEPIMNIEHLDKLYSYLSQVDLSGVKNKLLKLYAMLEEKGIHLSDRRKGKVLKVVSAHAILNSRLKATEEDLIVLKYIAPREIDDFEKVAALLSEELKTPIKYMKELNEIYNNIKEAAKYVEAANESDPRLIELIRSLRATRDRIVALGKESGDEKVEEFSKEVLSEIDKLIEKVARKLGIYP | not soluble
MSLNQWMELADRVLAGAEVTDEEALSILHCPDEDILLLMHGAFHIRKHFYGKKVKLNMIMNAKSGLCPENCGYCSQSAISKAPIESYRMVNKETLLEGAKRAHDLNIGTYCIVASGRGPSNREVDQVVDAVQEIKETYGLKICACLGLLKPEQAKRLKDAGVDRYNHNLNTSQRNHSNITTSHTYDDRVNTVEIAKESGLSPCSGAIIGMKETKQDVIDIAKSLKALDADSIPVNFLHAIDGTPLEGVNELNPLYCLKVLALFRFINPSKEIRISGGREVNLRTLQPLGLYAANSIFVGDYLTTAGQEETEDHKMLSDLGFEVESVEEMKASLSAKSEGHHHHHH | soluble
MAAAKRKLVFDSPNESSVNFETSPNFPKEWKIDGMDIENRIRNFRDELQAQGLCPVGSAGIDPKSKFRTEYRRIVNANTILTDVLRLQQKEGEWLKNASGLLEYDIQSLHARRDHLDNAVEQLKSQLSRLDSSVAILKSQQMAVKSVLELREDEYLADDADSNLPDEFLKFSKISKLCAASLQSYENVKKRNEEMQKELIAERNRQRKLHDATMKMMEEKERVRVEQLEDLFKDFSLEQLTRLRDRIRQAQK | not soluble
MGSDKIHHHHHHMNTKDLAYFDELISQKNFSKVAKTFGVSQPTVTTAIKRLESEFGAPLVIRDRVKNTLHVTASGAQLAEHAKIVLHELRLAHQEIDNLSQNRLILGLPPIIENHYFPKIGARLAAEGLLAGLETIEGGSIWLRNAVRDGRVDMTLLGSVEPLAYQTLIAEEFDRQPFCIYVSKQHPLAQRKRVYFNELRREKFVFFNSNFIHNTAFNKLTRRNHFRPNIVFRSNDTHVLMKLIGENVGIGFFTKIVDHYRTDVVRLDLMDIEPPEFITSIVYRTTHILTPVQQQLLTILHETLAVDTDQTD | not soluble
MSLNTISGTHFNYHQVCRRKLWLFSAGITMEHTSDLVYEGKLIHETTYQQRPERYQELELDGIKIDFYDAKNRVVHEVKKSNKISPAHRLQLLYYLYVLERNGVLGATGILEYPTLRKKEEVILSDIDRERIREIEQEILQIISHEDCPPVIDSGICKNCSYYEFCFSGEEQEGHHHHHH | soluble
GSHVFKSRLQEYAQKYKLPTPVYEIVKEGPSHKSLFQSTVILDGVRYNSLPGFFNRKAAEQSAAEVALRELAK | soluble
MGSDKIHHHHHHHLKTQAISFVIHFAHRPVKRYDSPLSFLCSRRVQKIKIMLRATSLFITLGLSHSAWALVPPDYQEPPSDFSAEIEAGLQINTGNTESSSFNGRTKLVYDTDKFRQEGVFKAYFASDSEKTTSEKYDVQLQSSYKIYSGYIFARGDFTEDRFGSYTRISTVSTGYGFDAISGDSTKLSLEVGPGYRYNLPQVSESVPDPEADREIILRTAAKFEQKIHEYTSFNADLTAETGEANNTVTLDMSYKNTLFQDWAFKIGMNIKYTEVVPEGSKQTDTVTTFNLLYTFK | not soluble
MCSKNSENSNVPRAKSDFITPNCSENTKLFMIFQSRKSIICEVCGKKYSSKSALAKHKRTHETDKRCKIKLIFGSSQKKTQKLYFLQKLSFLDADFFSILERNLLIFGYFAIFFSQKNTYISRFTCPMCYASFDLSDPFKIHLRKHDNLKPFGCSYCFKQFSSRSVCRRHVQLMHENQKRAGDGDNDDDDDID | not soluble
HKEDKEDFAELSGIAVPAEITAEDGTMFKEALLFTHRGLSGPSVLQISSFWKAGQKVSINLVPNEDIALLLERSLEKHPNQSLKNTLAKVLPKRLVEVLIERKELMDKPLKQFNPKELASVVERLENWSIAPNGTEGYRTAEVTLGGVDTDHLSSKTMECKNIKGLYFIGEVMDVTGWLGGYNFQWCWSSGFVAGQWV | not soluble
AAIDPNRIVALEWLPVELLLALGIVPYGVADTINYRLWVSEPPLPDSVIDVGLRTEPNLELLTEMKPSFMVWSAGYGPSPEMLARIAPGRGFNFSDGKQPLAMARKSLTEMADLLNLQSAAETHLAQYEDFIRSMKPRFVKRGARPLLLTTLIDPRHMLVFGPNSLFQEILDEYGIPNAWQGETNFWGSTAVSIDRLAAYKDVDVLCFDHDNSKDMDALMATPLWQAMPFVRAGRFQRVPAVWFYGATLSAMHFVRVLDNAIGGKA | soluble
MDICERSDEVVRYDSAQIRNGELELSSTVDDALFTDGLVATSGMLNADCRLVFGLVMFGHPLDEPMLCFTANGFELTVSIPNEDGETSSTWVIMARER | not soluble
MTHEYQDLITIFNDTFLEQFNTTLELGGDEPIYLPADDEHPHHRIIFARGFYASALHEIAHWCVAGPERRLMEDFGYWYEPDGRTEAVQAEFEKVEIRPQAYEWILATSAGFPFTVSCDNLHGDFEPDRLGFMQKVHKEVLGILEAGLPPRVKMLSDALRAFYQTKPLEASDFSVK | not soluble
